Test results as given in paper PMC12884772, “Macrophagic Sclerostin Loop2‐ApoER2 Interaction Required by Sclerostin for Cardiovascular Protective Action” (Advanced Science, 2025).

Target: His-sclerostin loop2 (Limits are not printed (Table S1 not shown). Loop2 taken by convention as the cystine-knot segment Cys-Cys, mature 84-109 in mouse. The paper's mature numbering (I94..W99, with V97 specific to mouse))
Sequence (chain, as listed by the source): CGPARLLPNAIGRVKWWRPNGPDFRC
Test: BLI; His-sclerostin loop2 loaded on anti-penta-HIS (HIS1K) biosensors, immersed in ApoER2-LA7 at different concentrations
Conditions: both partners purified

Kd: 1900 nM
B1: ApoER2-LA7 (P290-L326) (peptide)
peptide: PCRENEFQCGDGTCVLAIKRCNQERDCPDGSDEAGCL
notes: LDLR type A repeat 7 (LA7) of ApoER2, P290-L326; The form with D-residues at the first and last three positions was used only in vivo and is not this molecule; also called ApoER2-Pep; ApoER2 peptide tool
